Data on two variants can be found in IntAct's records for PubMed 20594350.

The labels stand for the following.
B1: Cell division cycle and apoptosis regulator protein 1 (Homo sapiens), Q8IX12 (parent)
chain: MAQFGGQKNPPWATQFTATAVSQPAALGVQQPSLLGASPTIYTQQTALAAAGLTTQTPANYQLTQTAALQQQAAAAAAALQQQYSQPQQALYSVQQQLQQPQQTLLTQPAVALPTSLSLSTPQPTAQITVSYPTPRSSQQQTQPQKQRVFTGVVTKLHDTFGFVDEDVFFQLSAVKGKTPQVGDRVLVEATYNPNMPFKWNAQRIQTLPNQNQSQTQPLLKTPPAVLQPIAPQTTFGVQTQPQPQSLLQAQISAASITPLLQTQPQPLLQQPQQKAGLLQPPVRIVSQPQPARRLDPPSRFSGRNDRGDQVPNRKDDRSRERERERRRSRERSPQRKRSRERSPRRERERSPRRVRRVVPRYTVQFSKFSLDCPSCDMMELRRRYQNLYIPSDFFDAQFTWVDAFPLSRPFQLGNYCNFYVMHREVESLEKNMAILDPPDADHLYSAKVMLMASPSMEDLYHKSCALAEDPQELRDGFQHPARLVKFLVGMKGKDEAMAIGGHWSPSLDGPDPEKDPSVLIKTAIRCCKALTGIDLSVCTQWYRFAEIRYHRPEETHKGRTVPAHVETVVLFFPDVWHCLPTRSEWETLSRGYKQQLVEKLQGERKEADGEQDEEEKDDGEAKEISTPTHWSKLDPKTMKVNDLRKELESRALSSKGLKSQLIARLTKQLKVEEQKEEQKELEKSEKEEDEDDDRKSEDDKEEEERKRQEEIERQRRERRYILPDEPAIIVHPNWAAKSGKFDCSIMSLSVLLDYRLEDNKEHSFEVSLFAELFNEMLQRDFGVRIYKSLLSLPEKEDKKEKDKKSKKDERKDKKEERDDETDEPKPKRRKSGDDKDKKEDRDERKKEDKRKDDSKDDDETEEDNNQDEYDPMEAEEAEDEEDDRDEEEMTKRDDKRDINRYCKERPSKDKEKEKTQMITINRDLLMAFVYFDQSHCGYLLEKDLEEILYTLGLHLSRAQVKKLLNKVVLRESCFYRKLTDTSKDEENHEESESLQEDMLGNRLLLPTPTVKQESKDVEENVGLIVYNGAMVDVGSLLQKLEKSEKVRAEVEQKLQLLEEKTDEDEKTILNLENSNKSLSGELREVKKDLSQLQENLKISENMNLQFENQMNKTIRNLSTVMDEIHTVLKKDNVKNEDKDQKSKENGASV

This assay covers variants of B1. To be noted: with wwtr1_mouse Wwtr1, Q9EPK5.
Chain of wwtr1_mouse Wwtr1, Q9EPK5 (Q9EPK5 whole entry): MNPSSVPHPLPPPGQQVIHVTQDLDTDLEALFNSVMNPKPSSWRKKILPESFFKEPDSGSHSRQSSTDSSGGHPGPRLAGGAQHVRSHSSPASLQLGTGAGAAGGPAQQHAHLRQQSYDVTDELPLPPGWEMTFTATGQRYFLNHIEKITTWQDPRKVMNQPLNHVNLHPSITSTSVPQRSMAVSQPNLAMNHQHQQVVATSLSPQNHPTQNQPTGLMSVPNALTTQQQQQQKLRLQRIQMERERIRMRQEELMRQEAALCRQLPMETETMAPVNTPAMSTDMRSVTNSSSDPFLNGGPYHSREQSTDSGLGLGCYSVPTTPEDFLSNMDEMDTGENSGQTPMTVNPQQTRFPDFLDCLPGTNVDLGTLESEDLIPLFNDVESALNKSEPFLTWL
For the variant T667A, the “effect of a mutation on the interaction” value is recorded as “decreasing interaction”. For the variant T667D, the “effect of a mutation on the interaction” value is “increasing interaction”.
